Experimental data: paper PMC3110719
Where two headings read alike, the source gives them in different places.

System: Nc1ncnc2c1ncn2[C@@H]1O[C@H](COP(=O)(O)OP(=O)(O)OP(=O)(O)O)[C@@H](O)[C@H]1O
Experiment: purified protein

## MsbA (Escherichia coli K-12; D512G)
1 µM MsbA, 0-1 mM ATP, 30 min
  Km: 122 ± 29 µM

## MsbA (Escherichia coli K-12; L511P)
  Km: 23 ± 12 µM
